The RNAGym collection of RNA variant scans (doi:10.1073/pnas.2313332121)
Variants at the floor of the assay were thinned out.

B1: TPR 5TU (parent)
chain: GGAUCUUCUCGAUCUAACAAAAAAGACAAAUCUGCCACAAAGCUUGAGAGCAUCUUCGGAUGCAGAGGCGGCAGCCUUCGGUGGCGCGAUAGCGCCAACGUUCUCAACUAUGACACGCAAAACGCGUGCUCCGUUGAAUGGAGUUUAUCAUG

Variants of: B1
Assay: polymerase ribozyme fitness, log enrichment relative to wild type (log ratio); higher = more active; in vitro selection for triplet polymerase activity
Outline: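 A heterodimeric triplet polymerase ribozyme had each of its subunits mutagenized by PCR into a library, which was transcribed. One round of in vitro selection, done in triplicate, annealed each library with a biotinylated primer, its partner subunit and triplets, then incubated it frozen at −7 °C before gel excision of extended constructs, streptavidin-bead capture and RT-PCR. Fitness is the logarithm of genotype enrichment relative to wild-type enrichment, based on Illumina sequencing of inputs and outputs and inverse-variance-weighted replicate averages. A base-2 logarithm is used, and genotypes were kept only with ≥10 input reads and ≥1 read per output.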

Variant | polymerase ribozyme fitness (log ratio)
GGAUCUUCUCGAUCUAACAAAAAAGACAAAUCUGCCAAAAAGCUUGCGAGCAUCUUCGGAUGCAGAGGCGGCAGCCUUCGGUGGCGCGAUAGCGCAAACGUUCUCAACUAUGACACGCAAAACGCGUGCUCCGUUGAAUGGAGUUUAUCAUG [C38A A47C C96A] | -1.63
GGAUCUUCUCGAUCUAACAAAAAAGACAAAUCUGCCUCAAAGCUUGAGAGCAUCUCCGGAUGCAGAGGUGGCAGCCUUCGGUGGCGCGAUAGCGCCAACGUUCUCAACUAUGACACGCAAAACGCGUGCUCCGUUGAAUGGAGUUUAUCAUG [A37U U56C C69U] | -2.76
GGAUCUUCUCGAUCUAACAAAAAAGACAAAUCUGCCUCAAAGCUUGAGAGCAUCUUCGGAUGCAGAGGCGGCAGCCUGCGGUGGCGCGACAGCGCCAACGGUCGCAACUAUGACACGCAAAACGCGUGCUCCGUUGAAUGGAGUUUAUCAUG [A37U U78G U90C U101G U104G] | ≤ -4.2
GGAUCUUCUCGAUCUAACAAAAAAGACAAAUCUGCCAAAAAGCUUGAGAGCAUCUUCGGAUGCAGAGGCGGCAGCCUUCGGUGGCGCGCUAGGGGCAACGUUCUCAAUUAUGACACGCAAAACGCGUGCUCCGUCGAAUGGAGUUUAUCAUG [C38A A89C C93G C95G C108U U135C] | ≤ -4.2
GGAUCUUCUCGAUCUAACAAAAAAGACAAAUCUGCCAAAAAGGUUGAGAGCAUCUUCGGAUGCAGAGGCGGCAGCCUUCGGUGGCGCGAUAGCGCCAACGUUCUGAACUAUGACAUGCAAAACGCGUGCUCCGUUGAAUGGAGUUUAUCAUG [C38A C43G C105G C116U] | ≤ -4.2
GGAUCUUCUCGAUCUAACAAAAAAGACAAAUCUGCCAAAAAGCUUGAGAGCAUCUUCGGAUGCAGAGGCGGCCGGCUUCGGUGGCGCGAUAGCGCCAACGUUCUCAACUAUGACACGCACAACGCGUGCUCCGUUGAAUGGAGUUUAUCAUG [C38A A73C C75G A120C] | ≤ -4.2
GGAUCUUCUCGAUCUAACAAAAAAGACAAAUCUGCCAAAUAGCUUGAUAGCAUCUUCGGAUGCAGAGGCGGCAGCCUUCGGUGGCGGGAUAGCGCCAAUGUUCUCAACUAUGACACGCAAAACACGUGCUCCGUUGAAUCGAGUUUAUCAUG [C38A A40U G48U C87G C99U G124A G140C] | ≤ -4.2
GGAUCUUCUCGAUCUAACAAAAAAGACAAAUCUGCCUCAAAGCUUGAGAGCAUCUUCGGAAGCAGAGGCGGCAGCCUUCGGUGGCGCGCUAGCGCAACCGUUCACAACUAUGACACGCAAAACGCGUGCUCCGUUGAAUGGAGUUUAUCAUG [A37U U61A A89C C96A A98C U104A] | ≤ -4.2
GGAUCUUCUCGAUCUAACAAAAAAGACAAAUCUGCCAAAAAGAUUGAGAGCAUCAUCGGAUGCAGAGGCGGCAGCCUUCGGUGGCGUGAUAGCGCCAACGUUCUCAACUAUGACACACAAAACGCGUGCUCCGUUGAAUGGAGUUUAUCAUG [C38A C43A U55A C87U G117A] | ≤ -4.2
GGAUCUUCUCGAUCUAACAAAAAAGACAAAUCUGCCUCAAAGCUUGAGAGCAUCUUCGGAUGCAGAGGCGGCAGCCUUCGGUGGCGCGAUAGCGCCAACGUUCUCAACUAUGACACGCAAAACGCGUGCUCCGUAGAAUGGAGUUUAUCAUG [A37U U135A] | -2.34
GGAUCUUCUCGAUCUAACAAAAAAGACAAAUCUGCCAAAAAGCUUGGGAGCAUCACCGGGUGCAGAGGCGGCAGCCUUCGGUGGCGCGAUAGCGCCAACGUUCUCAACUAUGACACGCAAAACGCGUGCUCCGUUGAAUGGAGUUUAUCAUG [C38A A47G U55A U56C A60G] | -2.08
GGAUCUUCUCGAUCUAACAAAAAAGACAAAUCUGCCAAAAAGCUUGAGAGCAUCUUCGGAUGCAGAGGCGGCAGCCUUCGGUGGCGCGAUAGCGCCAACGUUCUCAACUAUGACACGCAAAUCGCGUGCUCCGUUGGAUGUGGUUUAUCAUG [C38A A122U A137G G141U A142G] | -3.83
GGAUCUUCUCGAUCUAACAAAAAAGACAAAUCUGCCAAAAUGCUUGAGAGCCUCUUCGGAUGCAGAGGCGGCAGCCUUCGGUGGCGCGAUAGCGCCAACGUUCUCAACUAUGACACGCAAAACGCGUGCUCCGUUGAAUGGAGUUUAUCAUG [C38A A41U A52C] | -2.5
GGAUCUUCUCGAUCUAACAAAAAAGACAAAUCUGCCAAAAAGCUUGAGAGCAUCUUCGGAUGCAGAGGCGGCGGCCUUAGGUGGCGCGAUAGCGCCAACGUUCUCAACUAUGAGACGCAAAACUCGUGCUCCGUUGAAUUGAGUUUAGCAUG [C38A A73G C79A C114G G124U G140U U148G] | ≤ -4.2
GGAUCUUCUCGAUCUAACAAAAAAGACAAAUCUGCCUCAAAGCUUGAGAGCAUCUUCGGAUGCAGAGGCGGCAGCCUUCGGUGGCGCGAUAGCGCCAACGGUCUCAACUAUGACACGCAAAACGCGUGCUCCGGUGAAUGAAGUUUAUCAUG [A37U U101G U134G G141A] | -4.08
GGAUCUUCUCGAUCUAACAAAAAAGACAAAUCUGCCAAAAAGCUUGAGAGCAUCUUCGGAUGCGGAGGGGGCAGCCUUCGGUGGCGUGAUAGCGCCAACGUUCUCAACUAUGACACGCAAAACGCGUGCUCCGAUGAAUGGAGUUUAUCACG [C38A A64G C69G C87U U134A U151C] | ≤ -4.2
GGAUCUUCUCGAUCUAACAAAAAAGACAAAUCUGCCUCAAAGCUUGAGAGCAUCUUCGGAUGCAGAGGCGGCAGCCUUCGGUGGCGCGAUAGCGCCAACGUUCUCAACUAUGACACGCAAAACGCGUGCUCCGGUGAAUGGAGUUUAUCAUG [A37U U134G] | -2.86
GGAUCUUCUCGAUCUAACAAAAAAGACAAAUCUGCCUCAAAGCUUGAGAGCAUCUUCGGAAGCAGAGGCGGCAGCCUUCGGUGGUGCGAUAGCGCCAACGUUCUCAACUAUGACACGCAAAACGCGUGCUCCGUUGAAUGGAGUUUAUCAUG [A37U U61A C85U] | -2.89
GGAUCUUCUCGAUCUAACAAAAAAGACAAAUCUGCCUCAAAGCUUGAGAGCAUCUUCGGAUGCAGAGGCGGCAGCCGUCGGUGGCGCGAUAGCGCAAACGUUCUCGACUAUGACACGCAAAACGCGUGCUCCGUUGAAUGGAGUUUAUCAUG [A37U U77G C96A A106G] | ≤ -4.2
